The data set deals with T1, PUF4 RNA-binding domain (Saccharomyces cerevisiae, UniProt P25339 537-888).
T1 sequence: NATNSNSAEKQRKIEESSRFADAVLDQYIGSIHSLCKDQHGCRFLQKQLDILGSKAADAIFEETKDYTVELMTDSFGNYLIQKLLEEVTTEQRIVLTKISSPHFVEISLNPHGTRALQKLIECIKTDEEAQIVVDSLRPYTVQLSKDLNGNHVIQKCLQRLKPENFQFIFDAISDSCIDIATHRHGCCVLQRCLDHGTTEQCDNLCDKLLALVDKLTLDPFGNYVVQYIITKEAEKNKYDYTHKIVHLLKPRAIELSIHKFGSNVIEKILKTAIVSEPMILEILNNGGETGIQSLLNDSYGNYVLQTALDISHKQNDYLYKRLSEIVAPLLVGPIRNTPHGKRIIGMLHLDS
Description: Mg; RNA-MaP; 20 mM Na-HEPES pH 7.4, 30 mM KOAc, 0.75 mM MgCl2, 0.1% Tween-20, 5% glycerol, 0.1 mg/mL BSA, 2 mM DTT; 25 C; 0.0125-409.6 nM protein. To be noted: tags: N-His6-TEV cleaved; C-SNAP kept, Cy3B-labelled; label: tethered on chip by stalled RNA polymerase.

B1: Ie_S2_P5E.1_K5.1_C5.1_H5.1_[+3CCC]_A5.1_F5.1_T5.1 (ssRNA)
RNA: UUUGAUUAAUAUGAUAUCGUUCUUUCUUGUCCCAUUAUUAUUCUUUCUCGAUAUCAUAUUAAUCUUU
For B1, the Kd (usually the constant that tells how readily two partners part at equilibrium) is 24.4 nM.

B2: Ie_S2_P5E.1_K5.1_C5.1_H5.1_[+3TTC]_A5.1_F5.1_T5.1 (ssRNA)
RNA: UUUGAUUAAUAUGAUAUCGUUCUUUCUUGUUUCAUUAUUAUUCUUUCUCGAUAUCAUAUUAAUCUUU
B2 showed a Kd of 7.67 nM.

B3: Ie_S2_P5E.1_K5.1_C5.1_H5.1_[+3TCC]_A5.1_F5.1_T5.1 (ssRNA)
RNA: UUUGAUUAAUAUGAUAUCGUUCUUUCUUGUUCCAUUAUUAUUCUUUCUCGAUAUCAUAUUAAUCUUU
The molecule B3 returned a Kd of 11.4 nM.

B4: Ie_S2_P5E.1_K5.1_C5.1_H5.1_[+3CTC]_A5.1_F5.1_T5.1 (ssRNA)
RNA: UUUGAUUAAUAUGAUAUCGUUCUUUCUUGUCUCAUUAUUAUUCUUUCUCGAUAUCAUAUUAAUCUUU
In turn, B4 had a Kd of 10.1 nM.

B5: Ib_S2_P3E.1_K3.1_C3.1_H3.1_[T1C]_[T3C]_A3.1_F3.1_T3.1 (ssRNA)
RNA: UUUGAUUAAUAUGAUAUCGUUCUUUCUCGCAUAUAUUCUUUCUCGAUAUCAUAUUAAUCUUU
With B5, the Kd was more than 2300 nM.

B6: Ib_S2_P3E.1_K3.1_C3.1_H3.1_[T1G]_[A4G]_A3.1_F3.1_T3.1 (ssRNA)
RNA: UUUGAUUAAUAUGAUAUCGUUCUUUCUGGUGUAUAUUCUUUCUCGAUAUCAUAUUAAUCUUU
B6: binding was characterised by a dissociation constant (Kd) of 10.7 nM.

B7: Ie_S2_P5E.1_K5.1_C5.1_H5.1_[+2TCTC]_A5.1_F5.1_T5.1 (ssRNA)
RNA: UUUGAUUAAUAUGAUAUCGUUCUUUCUUGUCUCUAUUAUUAUUCUUUCUCGAUAUCAUAUUAAUCUUU
For the molecule B7, the Kd is 34.8 nM.

B8: Ie_S2_P5E.1_K5.1_C5.1_H5.1_[+3TCTC]_A5.1_F5.1_T5.1 (ssRNA)
RNA: UUUGAUUAAUAUGAUAUCGUUCUUUCUUGUUCUCAUUAUUAUUCUUUCUCGAUAUCAUAUUAAUCUUU
The molecule B8 displayed a Kd of 56.2 nM.

B9: Ie_S2_P5E.1_K5.1_C5.1_H5.1_[+2CCTC]_A5.1_F5.1_T5.1 (ssRNA)
RNA: UUUGAUUAAUAUGAUAUCGUUCUUUCUUGCCUCUAUUAUUAUUCUUUCUCGAUAUCAUAUUAAUCUUU
B9 returned a Kd of 1100 nM.

B10: Ie_S2_P5E.1_K5.1_C5.1_H5.1_[+3CCTC]_A5.1_F5.1_T5.1 (ssRNA)
RNA: UUUGAUUAAUAUGAUAUCGUUCUUUCUUGUCCUCAUUAUUAUUCUUUCUCGAUAUCAUAUUAAUCUUU
B10: the Kd worked out at 127 nM.

B11: Ie_S2_P5E.1_K5.1_C5.1_H5.1_[+2CCCT]_A5.1_F5.1_T5.1 (ssRNA)
RNA: UUUGAUUAAUAUGAUAUCGUUCUUUCUUGCCCUUAUUAUUAUUCUUUCUCGAUAUCAUAUUAAUCUUU
For B11, the Kd is 1170 nM.

B12: Ie_S2_P5E.1_K5.1_C5.1_H5.1_[+2TTCC]_A5.1_F5.1_T5.1 (ssRNA)
RNA: UUUGAUUAAUAUGAUAUCGUUCUUUCUUGUUCCUAUUAUUAUUCUUUCUCGAUAUCAUAUUAAUCUUU
As to B12, binding was put at a Kd of 37.6 nM.

B13: Ie_S2_P5E.1_K5.1_C5.1_H5.1_[+2CTCTC]_A5.1_F5.1_T5.1 (ssRNA)
RNA: UUUGAUUAAUAUGAUAUCGUUCUUUCUUGCUCUCUAUUAUUAUUCUUUCUCGAUAUCAUAUUAAUCUUU
With B13, the Kd was 724 nM.

B14: Ie_S2_P5E.1_K5.1_C5.1_H5.1_[+2TTCCT]_A5.1_F5.1_T5.1 (ssRNA)
RNA: UUUGAUUAAUAUGAUAUCGUUCUUUCUUGUUCCUUAUUAUUAUUCUUUCUCGAUAUCAUAUUAAUCUUU
Molecule B14 returned a Kd of 27.4 nM. This Kd is about 26-fold lower than that of the molecule before.

B15: Ie_S2_P5E.1_K5.1_C5.1_H5.1_[+2TCTCT]_A5.1_F5.1_T5.1 (ssRNA)
RNA: UUUGAUUAAUAUGAUAUCGUUCUUUCUUGUCUCUUAUUAUUAUUCUUUCUCGAUAUCAUAUUAAUCUUU
On to B15, for which the Kd was determined as 39.3 nM.

B16: Ie_S2_P5E.1_K5.1_C5.1_H5.1_[+3CCTCT]_A5.1_F5.1_T5.1 (ssRNA)
RNA: UUUGAUUAAUAUGAUAUCGUUCUUUCUUGUCCUCUAUUAUUAUUCUUUCUCGAUAUCAUAUUAAUCUUU
B16 had a Kd of 35.3 nM.

B17: Ie_S2_P5E.1_K5.1_C5.1_H5.1_[+2CCTCT]_A5.1_F5.1_T5.1 (ssRNA)
RNA: UUUGAUUAAUAUGAUAUCGUUCUUUCUUGCCUCUUAUUAUUAUUCUUUCUCGAUAUCAUAUUAAUCUUU
B17 returned a Kd of more than 2300 nM.

B18: Ie_S2_P5E.1_K5.1_C5.1_H5.1_[+3TTCCT]_A5.1_F5.1_T5.1 (ssRNA)
RNA: UUUGAUUAAUAUGAUAUCGUUCUUUCUUGUUUCCUAUUAUUAUUCUUUCUCGAUAUCAUAUUAAUCUUU
Regarding B18, binding was characterised by a dissociation constant (Kd) of 46.3 nM.

(Values after paper PMC9352680, “A comprehensive thermodynamic model for RNA binding by the Saccharomyces cerevisiae Pumilio protein PUF4”.)
